Data taken from the nanobody polyreactivity screen of Harvey et al. (2022).

Assay: yeast display, Sf9 membrane polyspecificity reagent, FACS + sequencing; frameworks hold sequencing errors
In short: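 A nanobody's polyreactivity label depends on the gate it was sorted from. Yeast display cells were stained with 10% biotinylated, detergent-solubilized Sf9 membrane reagent for 1 hour at 4 °C, enriched on streptavidin microbeads and sorted by FACS. The low and high (top ~1%) gates were set on anti-HA fluorescence for expression and streptavidin fluorescence for reagent binding.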

Row | Sequence | polyreactivity (PSR sort gate)
1 | QFQQVESGGGLVQAGGSLRLSCAATGSIFSYTMGWYRQAPGKERELVAAITSGGITYYADSVKGRFTISRDNAKNTVYLQMNSLKPEDSAVYYCNAYYPYGLASFYYWGQGTQVTVSS | low polyreactivity
2 | QFQRVESGGGLVQAGGSLRLTCAASGIIFVYNAMGWFRQATGKERELVAAINWRGDGTYYADSVKGRFTISRDNAKNTVYLQMNSLKQEDTAVYYCNAVRFRPNSHYRPVGYDYWGQGTQVTVSS | low polyreactivity
3 | QGHLEESGGGLVQAGGSLRISCAASGRILPYYVMGGYRPAPGKERELVATIYWSGGSTYYADSVKGRFTISRDNAKNNVNLQINSLKPEDTAVYYSNAAPSDDYDYWGQGTQVTVSS | low polyreactivity
4 | QGHLVESGGGLVQAGGSLRLSCAASGRIIRWNAMGWYRQGPGKERELFAGISGSGGSTYYADSVKGRFTISRDNAKNSVYLQMNSLKPEDTAVYYCNADADSSTYVGILQRLDYWGQGTQVTVSS | low polyreactivity
5 | QGKLVESGGGLVQAGGSLRLSCAASGLTFGSNTMGGYRQAPGKERELVAAITSNGGSTYYADSVKGRFTISRDNAKNTVYVQMNSLKPEDTAVYYCAARSYDGYYRYYYWGQGTQVTVSS | low polyreactivity
6 | QGQIVESGGGLVQAGGSLRLSCAASGFTFRRYAMGWYRQAPGKEREVVAGITSSGGSTYYADSVKGRFTSSRDKAKNPVYLQMNSLKPEDTAVYYCAAEWVYTSFDYWGQGTQVSVSS | high polyreactivity
7 | QGQLGESGGGLVQAGGSLRLSCAASGSNFSSNAMGWYRQAPWKERELVAAISSGGSTNYADSVKGRFTISRDNAKNTVYLQMNSLKPEDTAVYYCAADTSTGVYTPYAFEFDWGQGTQVTVSS | low polyreactivity
8 | QGQLVDSGGGVVQAGGSLRLSCAASGRTFPVYAMGWYRQAPGKERELVAAISSRGGSTYYADSVKGRFTISRDNAKNTVYLQMNSLKPEDTAVYYCAARMPGPRRFTMDYWGQGTQVTVSS | high polyreactivity
9 | QGQLVDSGGGVVQAGGSLRLSSAASGRSFGRNVMGWYRPAPGKERELVAAIRYSSGGTYYADSVKGRFTISRDYAKNTVDLQMNSLKPEDTAVYYCAARFFRGYRGGDWGQGTQVTVSS | high polyreactivity
10 | QGQLVESGGALFQAGGSLSLSCAASGRNFKRYAMGRYRQAPGKERELVAAIRTSDGLTYYADSVKGRFTISRDNAENTDYLQMNSLKPEETSVYYCADGYPYYHVYGYGYWGQGTQVTVSS | low polyreactivity
11 | QGQLVESGGCLVQEGGSLRLSCAASGRIFLYYTMGWYRQAPGKERELVAAITRSGGSTYYADSVKGRFTISRDNAKNTVYLQMNSLQPVDTAVSYCNRAYVRYVPMNYWGQGTLVTVSS | high polyreactivity
12 | QGQLVESGGGLVQAGGRLRLSCAAAGGIFYSNRMGWYRQATGKEREMVAAITGGDITDYADSVKGRFTISRDNAKNTDYLQMNSLKPEDTAVYYCAGESNPPDYGPRFGSWGQGTQVSVSS | low polyreactivity
13 | QGQLVESGGGLVQAGGRLRLSCAASGRIFPNNAMGWYRQAPGKERELVAAISRSGGRTYYADSVKGRFTISRDNAKNTVYLQMNSLKPEDTAVYYCAARSWGGYDSRGYWGQGTQVTVSS | high polyreactivity
14 | QGQLVESGGGLVQAGGSLRFSCAASGSTFRSYALGGYRQAPGKEWELVAAISGDGSTNYADSVKGRFTISRDNAKNPVYLQMNSLKPEDTAVYYCAKDPGYPAPYYDYYYWGQGTKVTVSS | low polyreactivity
15 | QGQLVESGGGLVQAGGSLRLRCAASGRTFYTYAMGWYRQAPGKERELVATITSGGSTYADSVKGRFTISRDNAKNTVYLQMNSLKPEDTAVYYCARGYYKPSVGKSKRVGGNYWGQGTQVTVSS | high polyreactivity
16 | QGQLVESGGGLVQAGGSLRLSCAASGFIFRNYAMGWYRQAPGKERELVAAISRGGSTYYADSVKGRFTISRDNAKNTVYLQMNSLKPEDTAVYYCAADASTYYGTQWASYYYWGQGTQVTVSS | high polyreactivity
17 | QGQLVESGGGLVQAGGSLRLSCAASGFTFSYYAMGWYRQAPGKERELVAAISRSGGSTYYADSVKGRFTISRDNAKNTVYLQMNSLKPEDTEVYYCAKRIKDRSGEAYVGLYYWGQGTQVTVSS | high polyreactivity
18 | QGQLVESGGGLVQAGGSLRLSCAASGFTFTRNTMGWYRQAPGKERELVAAITRGGSTNYADSVKGRFTISRDNAKNTVYLQLNSLKPEDTAVYYCNKGRNVVLVRTADDYWGQGTQVTVSS | low polyreactivity
19 | QGQLVESGGGLVQAGGSLRLSCAASGGIFIFYAMGWYRQAPGKERELVAAISNVSSTNYADSVKGRFTISRDNAKNTVYLQMNSLKPEDTAVYYCNAVGVPSEYYSWGQGTQVTVSS | low polyreactivity
20 | QGQLVESGGGLVQAGGSLRLSCAASGGTFLWNAMGWYRQAPGKERELVAAIRWSGARTYYADSVKGRFTISRDNAKNTVYLQMNSLKPEDTAVYYCASENYWYWPYNGMYYWGQGTQVTVSS | high polyreactivity
21 | QGQLVESGGGLVQAGGSLRLSCAASGLIFTYYDMGWYRQAPGKERELVAAISRRGTSTYYADSVKGRFTISRDNAKNTVYFQMNSLKPEDTEVYYCAADYYYFDSQQGMDYWGQGTQVTVSS | high polyreactivity
22 | QGQLVESGGGLVQAGGSLRLSCAASGLTFGYYDMGWYRQAPGKERELVAAITVRGGSTYYADSVKGRFTISRDNAKNTVYLQINSLKPEDTAVYYFNKRLFWSRHYYYWGQGTQVTVSS | high polyreactivity

Row | Sequence | polyreactivity (PSR sort gate)
23 | QGQLVESGGGLVQAGGSLRLSCAASGLTFSPNAMGWYRQEPGKERELVAAISSSGGRTNYADSVKGRFTISRDNAKNPVYLLMNSLKPEDTAVYYCFTNSFYEDDDWGQGTQVTVSS | high polyreactivity
24 | QGQLVESGGGLVQAGGSLRLSCAASGRIFNRNAMGWYRQAPGKERELVAAITRGGRTNYADSVKGRFTISRDNAQNTVYLQMNSLKPEDTAVYYCAAAYYGSHGRYDYWGQGTQVTVSS | high polyreactivity
25 | QGQLVESGGGLVQAGGSLRLSCAASGRIFSYNTMGWSRQAPGKERELVAAISTSGGSPYYADSVKGRFTISRDNAKNTVYLQMNSLTPEDTAVYYCNTVWTFRTSSNYDFWGQGTQVTVSS | low polyreactivity
26 | QGQLVESGGGLVQAGGSLRLSCAASGRIFTRYALGWYRQAPGNEREFVARSTGSGGRTYYADSVKGRFSISRDNAKNTVYLQMNSLKPEDTAVYYCNARRPSWHSYDYGYADYYWGQGTQVTVSS | high polyreactivity
27 | QGQLVESGGGLVQAGGSLRLSCAASGRIFVKNAMGWYRQAPGKERELVAAINWRGTSTYYADSVKGRFTISRDNAKNTVYLQMNSLKPEDTAVYYCNRVLGYPYGVDYWGQGTQVTVSS | high polyreactivity
28 | QGQLVESGGGLVQAGGSLRLSCAASGRIFYRTAMGWSSQAPGQERELVAVISGSGGRTYYADSVKGRFTIARDNAKNTVYLQMNSLKPEDTAVYYCARRAAYYSYLYSHYPWSYYYWGPGTQVTVSS | high polyreactivity
29 | QGQLVESGGGLVQAGGSLRLSCAASGRTFIGNVMGWYRQAPGKERELVAAISKSGTRTYYADSVKGRFTISRDIAKNTVYLQMNSLKPEDTAVYYCAASSYTHKRYPSPYDYWGQGTQVTVSA | high polyreactivity
30 | QGQLVESGGGLVQAGGSLRLSCAASGRTFPRYAMGWYRQAPGKERELVAVISFSGDSTSYADSVKGRFTISRDNAKNTVYLQMNSQKPEDTAVYYCKADYKSTVVRYSGSRNYWGQGTQVTVSS | low polyreactivity
31 | QGQLVESGGGLVQAGGSLRLSCAASGRTFYYNGMGWYRQAPGKERELVATITNGGSTNYADSVKGRFTISRDNAKNTVYLQMNSLKPEDTAVYYCAKTLASDCYDYWGQGTQVTVSS | low polyreactivity
32 | QGQLVESGGGLVQAGGSLRLSCAASGSIFGINAMGWYRQAPGKERELVAAISGSTSRTYYADSVKGRFTISRDNAKKTVYLQMNSLKPEDTAVYYCAVVGLRSVTRRSDYWGQGTQVTVSS | high polyreactivity
33 | QGQLVESGGGLVQAGGSLRLSCAASGSIFPVYAMGWYRQAPGKEREFVARIRFSGGRTYYADSVQGRFTISRDNAKNTVYLQMNSLKPEDTAVYYCAKAQYSGRYGYWGQGTQVTVSS | high polyreactivity
34 | QGQLVESGGGLVQAGGSLRLSCAASGSIIRSYAMGWYRQAPGKERELVASISRRGGSTYYADSVKGRFTISRDNAKNTVYLQMNSLKPEDTAVYYCAAVRYNSRVSTTPSEMYYWGQGTQVTVSS | low polyreactivity
35 | QGQLVESGGGLVQAGGSLRLSCAASGSTFPSYAMGWYRQAPGKERELVAAISRRSSRTYYADSVKGRFTISRDNAKNTVYLQMNSLKPEDTAVYYCNADAGRHSDEYGYDYWGQGTEVTVSS | high polyreactivity
36 | QGQLVESGGGLVQAGGSLRLSCAASGSTVPQYAMGWYRQAPGKERELVAVITDSGGSTYYADSVKGRFTISRDNAKNTVYLQMNSLKPEDTAVYYCAARRWSPRSGLGYGYWGQGTQVTVSS | high polyreactivity
37 | QGQLVESGGGLVQAGGSLRLSCAASGYTFNYNTMGWYRQAPGKVRELVAAINTSGSTYYADSVKGRFTISRDNAKNTVYLQMNSLKPEDTAVYYCAVRVAYKYNYWGQGTQVTVSS | high polyreactivity
38 | QGQLVESGGGLVQAGGSLRLSCAATGLIFDTNAMGWYRQAPGKERELVAAINSTGSTNYADSVKGRFTISRDNAKNTVYLQMNSLKREDTAVYYCAVEYDSSAQPRTEFDYWGQGTQVTVSS | low polyreactivity
39 | QGQLVESGGGLVQAGGSLRLSCPASGYIFWTNNMGWYRQSPGKERELVAAISYSGSSTYYADSVKGRFTISRDNAKNTVYLQMNSLKPEDTAVYYCAKKVRRYPTRYDSWGQGTQVTVSS | high polyreactivity
40 | QGQLVESGGGLVQAGGSLRLTCAASGFSFFDYAMGWYRQAPWKERELVAAISWDGDNTYYADSVKGRFTISRDNAKYTVYLQMNSLKPDDSAVYYCNADYENYEQFFDYWGQGTQVTVSS | high polyreactivity
41 | QGQLVESGGGLVQAGGSLRLTCAASGLTFWWYAMGWYRQAPGKERELVAAISSSGGSTYYADSVKGRFTISRDNAKNTVYLQMNSLKPEDTAVYYCAADGGFEYEYDYWGQGTQVTVTS | low polyreactivity
42 | QGQLVESGGGLVQAGVSLRLTCAASGSTFLTNSMGWYRQAPGKEREFVAAISRTGGSTYYADSVKGRFTISRDNAKNTVYLQMNSLKPEDTAVYYCAVYPYGRWLNYWGQGTQVTVSS | high polyreactivity
43 | QGQLVESGGGLVQGGGSLRLSCAACGSTLPSSARGWYIQAPGKDRELVAALRSGGTTNYADSVKGRFTISRDNAKNTVYVQMNSLKPEDTAVYYCATSRYLYWRSRYDYWGQGTQVTVSS | high polyreactivity
